How the values were obtained:
[1] = target: ED-tagged human SIRPα V1 receptor on Jurkat SIRPα-V1 signaling cells (human) (UniProt P78324); assay: cell-based or functional assay
[2] = target: ED-tagged human SIRPα V2 receptor on Jurkat SIRPα-V2 signaling cells (human) (UniProt P78324); assay: cell-based or functional assay
[3] = target: full-length cyno SIRPβ1 (XP_005568598, clone PA2), on CHO cells (cynomolgus monkey); assay: flow cytometry on CHO cells expressing the target
[4] = target: full-length cyno SIRPα (XP_015313155, clone P3HD10), on CHO cells (cynomolgus monkey); assay: flow cytometry on CHO cells expressing the target

Sequence of KWAR23 (antibody) (VH): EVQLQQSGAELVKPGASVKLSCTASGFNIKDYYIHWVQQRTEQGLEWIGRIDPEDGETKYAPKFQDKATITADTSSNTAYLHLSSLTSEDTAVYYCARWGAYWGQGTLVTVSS
Sequence of KWAR23 (antibody) (VL): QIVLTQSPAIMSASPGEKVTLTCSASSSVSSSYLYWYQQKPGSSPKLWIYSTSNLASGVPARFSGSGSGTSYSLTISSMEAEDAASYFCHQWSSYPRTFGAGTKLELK
Sequence of ED-tagged human SIRPα V2 receptor on Jurkat SIRPα-V2 signaling cells (human) (P78324 31-504): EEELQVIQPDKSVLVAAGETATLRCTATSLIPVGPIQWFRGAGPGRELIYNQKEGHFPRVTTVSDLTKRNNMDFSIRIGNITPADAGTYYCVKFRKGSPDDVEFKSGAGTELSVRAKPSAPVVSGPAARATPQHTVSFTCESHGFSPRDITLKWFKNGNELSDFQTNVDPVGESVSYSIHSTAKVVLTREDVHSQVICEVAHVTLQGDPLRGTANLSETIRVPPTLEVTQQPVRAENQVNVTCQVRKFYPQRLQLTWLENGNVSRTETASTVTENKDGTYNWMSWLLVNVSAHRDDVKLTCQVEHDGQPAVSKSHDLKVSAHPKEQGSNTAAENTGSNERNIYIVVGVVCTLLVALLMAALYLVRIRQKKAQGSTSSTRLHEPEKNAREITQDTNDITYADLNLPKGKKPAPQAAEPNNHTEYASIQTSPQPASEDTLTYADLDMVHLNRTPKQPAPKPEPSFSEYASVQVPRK
Sequence of ED-tagged human SIRPα V1 receptor on Jurkat SIRPα-V1 signaling cells (human) (P78324 31-504): as above

IC50 of SIRPα signaling (SHP-1 recruitment, enzyme fragment complementation, Jurkat reporter cells) [1]: 0.04 nM
IC50 of SIRPα signaling (SHP-1 recruitment, enzyme fragment complementation, Jurkat reporter cells) [2]: 0.04 nM
EC50 [3]: 0.2 nM
EC50 [4]: 0.5 nM
Substance: KWAR23 (antibody)

— US20230203188A1
